Experimental data from US20220143136A1, “USE OF ANNEXINS IN PREVENTING AND TREATING MUSCLE MEMBRANE INJURY” (NORTHWESTERN UNIVERSITY, priority 2018, published 2022).
Entries after “also recorded” stand apart in the source; their conditions may differ.

Experiments:
[1] = system: wildtype myofibers; test: Ca2+-dependency of recombinant annexin A6 protection, FM 1-43 uptake after laser injury; assay type: cell-based, mouse; details: 20 μg/ml rANXA6 pretreatment, 0 mM Ca2+ + EGTA compared with 1 mM Ca2+
Experimental: Multiphoton laser injury and imaging. Fibers were subjected to laser-induced damage at room temperature using the Nikon A1R-MP multiphoton microscope. Imaging was performed using a 25×1.1 NA objective directed by the NIS-Elements AR imaging software. Green fluorescence protein (GFP) and FM 4-64 were excited using a 920 nm wavelength laser and emission wavelengths of 575 nm and 629 nm were collected respectively. To induce laser damage on isolated myofibers, a diffraction limited spot (diameter approximately 410 nm) was created on the lateral membrane of the myofiber using a 920 nm wavelength laser at 10-15% laser power for 1 s. Time lapse images were collected as follows: one image was collected prior to damage, one image upon damage, then every 8 seconds for 80 seconds (10 images) followed by every 30 seconds for 5 minutes (10 images). At the end of the time lapsed image series, z-stack images were collected at 250 nm intervals through the damaged site on the myofiber directed by the NIS-Elements AR imaging software. The multiphoton was used to acquire data presented in FIG. 5, FIG. 10D and FIG. 19.
For recombinant protein calcium studies, myofibers were isolated from wildtype mice as described above. […] Images were acquired and quantitated as described above. FM 1-43 fluorescence over time was measured using FIJI and plotted overtime as F/F0.

[2] = system: mdx/hLTBP4 myofibers; test: Laser-induced membrane injury, FM 4-64 dye uptake, dystrophic myofibers; assay type: cell-based, mouse; details: 25 μg/ml extracellular recombinant protein vs vehicle control, dystrophic (DMD model) myofibers
Experimental: For recombinant myofibers studies, myofibers were isolated from mdx/hLTBP4 mice as described above. Myofibers were incubated in Ringer's media with or without 25 μg/ml recombinant annexin A6 (5186-A6-050, R&D systems). FM 4-64 ([…]) was added to the myofibers just prior to imaging. Images were acquired and quantitated as described above. FM 4-64 area was measured using FIJI at imaging endpoint from a single slice near the middle of the z-stack. Z-stack step size (0.125 μm) was acquired from cap end to end.
Multiphoton laser injury and imaging. Fibers were subjected to laser-induced damage at room temperature using the Nikon A1R-MP multiphoton microscope. Imaging was performed using a 25×1.1 NA objective directed by the NIS-Elements AR imaging software. Green fluorescence protein (GFP) and FM 4-64 were excited using a 920 nm wavelength laser and emission wavelengths of 575 nm and 629 nm were collected respectively. To induce laser damage on isolated myofibers, a diffraction limited spot (diameter approximately 410 nm) was created on the lateral membrane of the myofiber using a 920 nm wavelength laser at 10-15% laser power for 1 second. […]
Multiphoton laser injury and imaging. […] Green fluorescence protein (GFP) and FM 4-64 were excited using a 920 nm wavelength laser and emission wavelengths of 575 nm and 629 nm were collected respectively. […]

B1: recombinant annexin A6: recombinant human annexin A6 protein with C-terminal HIS tag (5186-A6-050, R&D systems); mouse protein from Northwestern core in one cohort (protein, UniProt P08133 2-673, looked up)
Annexin A6: AKPAQGAKYRGSIHDFPGFDPNQDAEALYTAMKGFGSDKEAILDIITSRSNRQRQEVCQSYKSLYGKDLIADLKYELTGKFERLIVGLMRPPAYCDAKEIKDAISGIGTDEKCLIEILASRTNEQMHQLVAAYKDAYERDLEADIIGDTSGHFQKMLVVLLQGTREEDDVVSEDLVQQDVQDLYEAGELKWGTDEAQFIYILGNRSKQHLRLVFDEYLKTTGKPIEASIRGELSGDFEKLMLAVVKCIRSTPEYFAERLFKAMKGLGTRDNTLIRIMVSRSELDMLDIREIFRTKYEKSLYSMIKNDTSGEYKKTLLKLSGGDDDAAGQFFPEAAQVAYQMWELSAVARVELKGTVRPANDFNPDADAKALRKAMKGLGTDEDTIIDIITHRSNVQRQQIRQTFKSHFGRDLMTDLKSEISGDLARLILGLMMPPAHYDAKQLKKAMEGAGTDEKALIEILATRTNAEIRAINEAYKEDYHKSLEDALSSDTSGHFRRILISLATGHREEGGENLDQAREDAQVAAEILEIADTPSGDKTSLETRFMTILCTRSYPHLRRVFQEFIKMTNYDVEHTIKKEMSGDVRDAFVAIVQSVKNKPLFFADKLYKSMKGAGTDEKTLTRIMVSRSEIDLLNIRREFIEKYDKSLHQAIEGDTSGDFLKALLALCGGED
modifications: C-terminal His tag
notes: recombinant human annexin A6 protein with C-terminal HIS tag (5186-A6-050, R&D systems); mouse protein from Northwestern core in one cohort
FM 1-43 fluorescence accumulation at the lesion over time (F/F0) [1]: significantly increased | FM 1-43 fluorescence accumulation at the lesion over time (F/F0) ([1]; listed as rANXA6): significantly reduced at 1 mM | FM 4-64 fluorescence / dye uptake after laser injury [2]: reduced | FM 4-64 fluorescence / dye uptake after laser injury ([2]; listed as rANXA6): significantly smaller; also recorded: significantly less
